Target: the molecule itself
Assay: crystal structure; sitting drop vapor diffusion at 18 °C; protein 12 mg/mL in 25 mM Tris-HCl pH 8.0, 2 mM MnCl2, 100 mM guanidine chloride; two crystal forms (7LOL at 1.8 Å, 7LOX at 3.2 Å); oligomeric state analysed with PISA

B1: Agmatinase from Escherichia coli (enzyme)
chain: MSTLGHQYDNSLVSNAFGFLRLPMNFQPYDSDADWVITGVPFDMATSGRAGGRHGPAAIRQVSTNLAWEHNRFPWNFDMRERLNVVDCGDLVYAFGDAREMSEKLQAHAEKLLAAGKRMLSFGGDHFVTLPLLRAHAKHFGKMALVHFDAHTDTYANGCEFDHGTMFYTAPKEGLIDPNHSVQIGIRTEFDKDNGFTVLDACQVNDRSVDDVIAQVKQIVGDMPVYLTFDIDCLDPAFAPGTGTPVIGGLTSDRAIKLVRGLKDLNIVGMDVVEVAPAYDQSEITALAAATLALEMLYIQAAKKGE
notes: Agmatinase (EcAGM), Escherichia coli; wild type; gene cloned into pQE60; residues 11 to 26 of the N-terminal end are modeled in the structure; The hexamer (dimer of trimers) is built by crystal symmetry: 7LOL has one chain and 7LOX three chains in the asymmetric unit; also called EcAGM; E. coli AGM; source: E. coli BL21(DE3), purified (HisTrap HP, S-200 size exclusion)
stoichiometry N: 6
